The values below come from paper PMC12376085.

In this assay the target is HLA-A2/β2M complex on T2 cells (no pulsed peptide) (human (endogenous in T2) | human). The assay can be described thus: flow cytometry on cells. On the technique in general: In flow cytometry, cells or beads pass a laser one at a time.

B1: … peptide (WT1 126–134) (peptide)
peptide: RMFPNAPYL
B1 registered an MFI of surface HLA-A2 on peptide-pulsed T2 cells of 74200.

B2: … peptide (peptide)
peptide: ILSLELMKL
Consider B2, for which the MFI of surface HLA-A2 on peptide-pulsed T2 cells was 53900.
